# According to PMC11565788 (bioRxiv, 2024):
# B1: AP1σ3-His6 (full-length human AP1S3 with C-terminal His6 tag) (natural protein, UniProt Q96PC3-1 1-154, looked up)
# chain: MIHFILLFSRQGKLRLQKWYITLPDKERKKITREIVQIILSRGHRTSSFVDWKELKLVYKRYASLYFCCAIENQDNELLTLEIVHRYVELLDKYFGNVCELDIIFNFEKAYFILDEFIIGGEIQETSKKIAVKAIEDSDMLQEVSTVSQTMGER
# B2: AAGAB psGD (residues 2-177), tagless, coexpressed and co-purified with AP1σ3-His6 (domain or fragment, human, UniProt Q6PD74 2-177, looked up)
# chain: AAGVPCALVTSCSSVFSGDQLVQHILGTEDLIVEVTSNDAVRFYPWTIDNKYYSADINLCVVPNKFLVTAEIAESVQAFVVYFDSTQKSGLDSVSSWLPLAKAWLPEVMILVCDRVSEDGINRQKAQEWCIKHGFELVELSPEELPEEDDDFPESTGVKRIVQALNANVWSNVVMK
# Columns and labels:
# [1] = target: B2; assay: crystal structure
# [2] = target: B1; assay: SEC
binding result [1],stoichiometry N [2],Binder
binds,–,B1
–,1,B2
